Test results as given in patent US20260274944A1.

Target: RAGE (the receptor of interest on CHO cell lines; human or mouse not told)
Assay: cell-based or functional assay

cellular delivery of FLuc mRNA (luminescence), fold against control LNP: 3 to 5 fold
B1: VHH 5-LNP (protein)
VHH: EVQLVESGGGLVQPGGSLRLSCAASGTIFSLNPMGWYRQAPGKQLELVALISDSGTANYADFVRGRFTISRDTTKKTLYLQMNSLEPEDTAVYYCRSTFAAGNFYWGQGTQVTVSS
modifications: here or on the partner: BCN (bicyclo[6.1.0]nonyne) selectively conjugated to the VHH and clicked to DOPE-PEG2000-N3 on the surface of a lipid nanoparticle loaded with luciferase mRNA
